Test results: publication PMC11109957

Molecular target: OGG1 (UniProt O15527)
Experiment: co-IP, Western blot
Conditions: reference: wild type, KBrO3; sites S46,S53

binding against the reference: weaker
Substance: SIRT2 (from UniProt Q8IXJ6) S46AS53A, KBrO3
